We go through nine molecules from publication PMC12719470 (Frontiers in Immunology, 2025).

Details in all cases: both partners purified
One experiment deals with T1, TNFR2-His protein (Homo sapiens, UniProt P20333).
T1 construct: Tumor necrosis factor receptor 2 (TNFR2), human; The BLI methods say only 'TNFR2-His protein'; It may be the E. coli ectodomain (residues 33-205, purified on a nickel column) or a bought protein (Sino Biological 10417-H03H); neither the source nor the species is named for this experiment; also called histidine-tagged TNFR2
Nature of the experiment: BLI; 30 nM Nanobody-161 IgG1 or mutant immobilised on Protein A biosensors (Gator); 4800 nM-300 nM TNFR2-His in Q Buffer (PBS, 0.02% Tween 20, 0.2% BSA); 25 °C; association 120 s, dissociation 180 s; global 1:1 Langmuir fit.

For a further experiment, the target named is T2, Nanobody-161 IgG1.
T2 construct: CDR1 26-35, CDR2 50-59, CDR3 99-110); 78 kDa, called bivalent in the discussion; The methods nonetheless speak of heavy-chain and light-chain plasmids; source: ExpiCHO, transfected, purified from conditioned medium (MabSelect SuRe LX)
Nature of the experiment: BLI; Gator system, 25 °C; 30 nM Nanobody-161 IgG1 or mutant immobilised on Protein A biosensors for 120 s; 4800 nM-300 nM TNFR2-His in Q Buffer (PBS, 0.02% Tween 20, 0.2% BSA); association 120 s, dissociation 180 s; global 1:1 Langmuir fit.

Another experiment addresses T3, Nanobody-161 IgG1 R29A.
T3 construct: as the chain of m1 with the stated change
The experiment is described as above.

The next experiment concerns the target T4, Nanobody-161 IgG1 R53A.
T4 construct: as the chain of m1 with the stated change
The experiment is described as above.

Another experiment concerns the target T5, Nanobody-161 IgG1 Q102A.
T5 construct: as the chain of m1 with the stated change
The description is as above.

Another experiment deals with T6, Nanobody-161 IgG1 F107G.
T6 construct: as the chain of m1 with the stated change
Described as above.

The target of the next experiment is T7, Nanobody-161 IgG1 R108A.
T7 construct: as the chain of m1 with the stated change
Described as above.

T1 sequence (P20333 23-461): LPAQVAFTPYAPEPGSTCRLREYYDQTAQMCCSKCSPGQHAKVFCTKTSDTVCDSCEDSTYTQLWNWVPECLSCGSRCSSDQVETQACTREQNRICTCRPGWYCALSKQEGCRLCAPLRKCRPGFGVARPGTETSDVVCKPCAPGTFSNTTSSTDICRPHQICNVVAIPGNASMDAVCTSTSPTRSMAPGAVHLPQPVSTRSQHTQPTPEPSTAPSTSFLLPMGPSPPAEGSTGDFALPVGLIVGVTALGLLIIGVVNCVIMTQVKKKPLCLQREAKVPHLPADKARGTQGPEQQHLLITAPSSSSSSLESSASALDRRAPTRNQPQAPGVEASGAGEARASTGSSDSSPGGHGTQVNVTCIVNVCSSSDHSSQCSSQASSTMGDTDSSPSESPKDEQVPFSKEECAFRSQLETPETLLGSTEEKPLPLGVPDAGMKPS

B1: Nanobody-161 IgG1 (VHH)
VHH: EVQLVESGGGLVQPGGSLRLSCAASGSIRFINDMGWYRQAPGKGLELVAAIGRGGGSTNYADSVKGRFTISRDNAKNTLYLQMNSLRAEDTAVYYCHAEISQLGYAFRDYWGQGTLVTVSS
notes: also called WT; source: ExpiCHO, purified (MabSelect SuRe LX)
With B1, in the experiment with TNFR2-His protein, the dissociation constant (Kd) amounted to 81.5 nM, the koff is 0.000276 s⁻¹ and the kon is 3390 M⁻¹ s⁻¹.

B2: Nanobody-161 IgG1 F30G (VHH)
VHH: EVQLVESGGGLVQPGGSLRLSCAASGSIRGINDMGWYRQAPGKGLELVAAIGRGGGSTNYADSVKGRFTISRDNAKNTLYLQMNSLRAEDTAVYYCHAEISQLGYAFRDYWGQGTLVTVSS
notes: as the VHH of Wm1, with the stated change
In the experiment with TNFR2-His protein, B2 had an equilibrium dissociation constant (Kd) of 3780 nM, a koff of 0.0126 s⁻¹ and a kon of 3340 M⁻¹ s⁻¹.

B3: Nanobody-161 IgG1 R53A (VHH)
VHH: EVQLVESGGGLVQPGGSLRLSCAASGSIRFINDMGWYRQAPGKGLELVAAIGAGGGSTNYADSVKGRFTISRDNAKNTLYLQMNSLRAEDTAVYYCHAEISQLGYAFRDYWGQGTLVTVSS
notes: as for B2
In the experiment with TNFR2-His protein, B3 had a Kd of 79.5 nM, a koff of 0.000321 s⁻¹ and a kon of 4030 M⁻¹ s⁻¹.

B4: Nanobody-161 IgG1 L103G (VHH)
VHH: EVQLVESGGGLVQPGGSLRLSCAASGSIRFINDMGWYRQAPGKGLELVAAIGRGGGSTNYADSVKGRFTISRDNAKNTLYLQMNSLRAEDTAVYYCHAEISQGGYAFRDYWGQGTLVTVSS
notes: as for B2
B4: in the experiment with TNFR2-His protein, the Kd was 976 nM, the off-rate (koff) worked out at 0.00382 s⁻¹ and the on-rate constant (kon) is 3920 M⁻¹ s⁻¹.

B5: Nanobody-161 IgG1 R29A (VHH)
VHH: EVQLVESGGGLVQPGGSLRLSCAASGSIAFINDMGWYRQAPGKGLELVAAIGRGGGSTNYADSVKGRFTISRDNAKNTLYLQMNSLRAEDTAVYYCHAEISQLGYAFRDYWGQGTLVTVSS
notes: as for B2
In the experiment with TNFR2-His protein, B5 came in with a dissociation constant Kd of 631 nM, an off-rate (koff) of 0.002 s⁻¹ and a kon of 3170 M⁻¹ s⁻¹.

B6: Nanobody-161 IgG1 S101A (VHH)
VHH: EVQLVESGGGLVQPGGSLRLSCAASGSIRFINDMGWYRQAPGKGLELVAAIGRGGGSTNYADSVKGRFTISRDNAKNTLYLQMNSLRAEDTAVYYCHAEIAQLGYAFRDYWGQGTLVTVSS
notes: as for B2
On to B6, for which, in the experiment with TNFR2-His protein, binding was put at a Kd of 1720 nM, the koff was determined as 0.00926 s⁻¹ and the on-rate (kon) was found to be 5370 M⁻¹ s⁻¹.

B7: Nanobody-161 IgG1 R108A (VHH)
VHH: EVQLVESGGGLVQPGGSLRLSCAASGSIRFINDMGWYRQAPGKGLELVAAIGRGGGSTNYADSVKGRFTISRDNAKNTLYLQMNSLRAEDTAVYYCHAEISQLGYAFADYWGQGTLVTVSS
notes: as for B2
In the experiment with TNFR2-His protein, B7 came in with a Kd of 186 nM, a koff of 0.000877 s⁻¹ and a kon of 4730 M⁻¹ s⁻¹.

B8: Nanobody-161 IgG1 Q102A (VHH)
VHH: EVQLVESGGGLVQPGGSLRLSCAASGSIRFINDMGWYRQAPGKGLELVAAIGRGGGSTNYADSVKGRFTISRDNAKNTLYLQMNSLRAEDTAVYYCHAEISALGYAFRDYWGQGTLVTVSS
notes: as for B2
As to B8, in the experiment with TNFR2-His protein, the Kd was 212 nM, the koff stood at 0.000699 s⁻¹ and the on-rate constant (kon) came to 3290 M⁻¹ s⁻¹.

B9: TNFR2-His protein (receptor, UniProt P20333 23-461, looked up)
chain: APEPGSTCRLREYYDQTAQMCCSKCSPGQHAKVFCTKTSDTVCDSCEDSTYTQLWNWVPECLSCGSRCSSDQVETQACTREQNRICTCRPGWYCALSKQEGCRLCAPLRKCRPGFGVARPGTETSDVVCKPCAPGTFSNTTSSTDICRPHQICNVVAIPGNASMDAVCTSTSP
notes: TNFR2-His protein used as analyte in BLI; also called histidine-tagged TNFR2
With B9, the binding result with Nanobody-161 IgG1, in the experiment with Nanobody-161 IgG1 R29A, with Nanobody-161 IgG1 R53A, in the experiment with Nanobody-161 IgG1 Q102A, in the experiment with Nanobody-161 IgG1 F107G and with Nanobody-161 IgG1 R108A was “binds” each time.

What is called Kd is the concentration at which binding is half-saturated. Low readings indicate higher affinity, high ones lower affinity. The term koff denotes the rate constant with which the complex falls apart. One may read the kon as the second-order rate constant of association.
